Experimental data from article PMC2666446 (Journal of molecular biology, 2008).
Substitutions are numbered along the chain they refer to.

Columns and labels:
mutS-A842E = target: T1, mutS-A842E (Escherichia coli, UniProt P23909 1-853, A842E); assay: EMSA
T1 sequence: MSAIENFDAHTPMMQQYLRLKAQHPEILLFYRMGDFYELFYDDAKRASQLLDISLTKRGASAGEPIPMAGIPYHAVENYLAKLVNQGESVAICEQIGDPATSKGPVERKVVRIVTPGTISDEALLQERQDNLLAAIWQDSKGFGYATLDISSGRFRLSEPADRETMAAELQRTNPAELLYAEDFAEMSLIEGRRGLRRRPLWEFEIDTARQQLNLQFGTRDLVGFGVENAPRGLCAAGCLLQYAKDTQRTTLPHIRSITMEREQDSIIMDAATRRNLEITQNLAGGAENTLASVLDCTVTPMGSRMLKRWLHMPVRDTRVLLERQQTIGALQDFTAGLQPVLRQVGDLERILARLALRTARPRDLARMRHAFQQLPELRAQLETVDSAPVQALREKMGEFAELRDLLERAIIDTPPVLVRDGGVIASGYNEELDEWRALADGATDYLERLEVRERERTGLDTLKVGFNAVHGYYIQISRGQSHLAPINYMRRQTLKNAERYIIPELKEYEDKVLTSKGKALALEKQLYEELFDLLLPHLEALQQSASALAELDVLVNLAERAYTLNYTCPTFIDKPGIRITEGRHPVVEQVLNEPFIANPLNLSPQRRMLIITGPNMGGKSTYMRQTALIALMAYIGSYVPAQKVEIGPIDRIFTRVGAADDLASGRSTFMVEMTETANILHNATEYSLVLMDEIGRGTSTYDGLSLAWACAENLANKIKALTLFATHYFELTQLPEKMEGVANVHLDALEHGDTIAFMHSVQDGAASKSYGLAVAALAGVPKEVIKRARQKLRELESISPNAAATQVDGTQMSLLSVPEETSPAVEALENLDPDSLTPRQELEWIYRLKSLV

MutS [1] = target: T2, MutS (Escherichia coli, UniProt P23909 1-853); assay: stopped-flow FRET kinetics
T2 sequence: T1 sequence with E842A

MutS [2] = target: T2, MutS; assay: FRET equilibrium titration
MutS [3] = target: T2, MutS; assay: stopped-flow FRET kinetics; remark: listed apart in the source
MutS [4] = target: T2, MutS; assay: stopped-flow FRET kinetics; remark: listed apart in the source
MutS [5] = target: T2, MutS; assay: stopped-flow FRET kinetics; remark: listed apart in the source
MutS [6] = target: T2, MutS; assay: stopped-flow FRET kinetics; remark: listed apart in the source
MutS [7] = target: T2, MutS; assay: FRET equilibrium titration; remark: listed apart in the source
MutS [8] = target: T2, MutS; assay: stopped-flow FRET kinetics; remark: listed apart in the source
MutS [9] = target: T2, MutS; assay: FRET equilibrium titration; remark: listed apart in the source

B1: 30-1ΔT (dsDNA)
DNA 1: AACTGCCAGGCACCAGTGTCAGCGTCGTAT
DNA 2: ATACGACGCTGACACTGGTGCCTTGGCAGTT
- binding result (mutS-A842E): binds
- Kd (MutS [1]): 50 nM
- Kd (MutS [2]): 56 nM
- Kd (MutS [3]): 91 nM
- Kd (MutS [4]): 137 nM
- Kd (MutS [5]): 321 nM
- Kd (MutS [6]): 39 nM
- Kd (MutS [7]): 62 nM
- Kd (MutS [8]): 27 nM
- Kd (MutS [9]): 123 nM
